Results as given in PMC5638086, “Assessment of the protein interaction between coagulation factor XII and corn trypsin inhibitor by molecular docking and biochemical validation” (Journal of Thrombosis and Haemostasis, 2017).
Numbering of substitutions follows the chain as printed. Numbers in names are those of the source. Where a SMILES comes first, the peptide text is derived from it. Bridges are numbered along the chain shown (N, C = ends). Where no end group is shown, it is not given here.

How the values were obtained:
α‐FXIIa = target: T1, α‐FXIIa (Homo sapiens, UniProt P00748); assay: α‐FXIIa enzymatic assay (S‐2302 chromogenic substrate cleavage, pNA release); format: biochemical; conditions: for IC50 (M): IC50 corresponding to the pIC50; for pIC50 ± SE / IC50: 33 °C, SE of the fit, n = 3–5 independent experiments
T1 construct: purchased Enzyme Research Laboratories (Swansea, UK)
T1 sequence (P00748 373-615 limits assumed): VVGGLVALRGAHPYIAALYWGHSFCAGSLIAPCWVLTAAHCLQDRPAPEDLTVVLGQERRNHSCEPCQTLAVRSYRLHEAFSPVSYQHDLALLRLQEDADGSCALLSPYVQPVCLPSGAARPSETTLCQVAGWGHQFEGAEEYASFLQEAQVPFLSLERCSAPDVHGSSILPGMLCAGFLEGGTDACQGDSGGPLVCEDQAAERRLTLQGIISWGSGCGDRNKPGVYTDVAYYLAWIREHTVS
T1 sequence (P00748 20-372 partner limits assumed): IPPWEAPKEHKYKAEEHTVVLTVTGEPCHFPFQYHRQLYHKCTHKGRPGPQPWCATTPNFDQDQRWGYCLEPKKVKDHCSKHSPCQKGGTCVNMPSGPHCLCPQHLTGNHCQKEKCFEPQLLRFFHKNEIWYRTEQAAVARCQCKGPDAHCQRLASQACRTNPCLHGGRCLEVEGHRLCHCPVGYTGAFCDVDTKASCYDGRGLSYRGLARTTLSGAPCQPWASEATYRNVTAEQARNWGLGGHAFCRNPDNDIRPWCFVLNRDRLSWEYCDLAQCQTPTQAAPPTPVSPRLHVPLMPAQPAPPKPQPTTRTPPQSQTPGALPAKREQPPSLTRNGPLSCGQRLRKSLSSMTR
Method: The enzymatic activity of α‐FXIIa was measured by monitoring the amount of pNA chromophore released from substrate H‐D‐Pro‐Phe‐Arg‐pNA (S‐2302). Assays were performed in a 100‐μL volume at 33 °C in 96‐well plates in a Perkin Elmer (Seer Green, UK) Envision plate reader, and pNA release was followed over a period of 6 h by reading the absorbance at 405 nm. Absorbance values were converted to pNA concentrations by comparison with a standard curve obtained under exactly the same instrument conditions. All absorbance values were within the linear measurement range of the instrument. Initial rates were calculated on the basis of the first 30 min of incubation. To assess the K M, concentrations of substrate peptide between 0.1 mM and 0.6 mM were incubated with 10 nM α‐FXIIa, enzymatic activity was measured as described above, and data were analyzed by non‐linear regression with the Michaelis–Menten algorithm (GRAPHPAD PRISM, version 6.04). To assess the inhibitory mechanism of CTI, 30 nM CTI was incubated with these same concentrations of substrate peptide, the reaction was initiated by the addition of 10 nM α‐FXIIa, enzymatic activity was measured as described above, and data were analyzed by non‐linear regression with the Michaelis–Menten algorithm (GRAPHPAD PRISM, version 6.04) and by linear regression after Lineweaver–Burk transformation. To assay inhibitors, concentrations of CTI variant proteins between 10^−8 M and 10^−5 M or concentrations of peptides between 10^−6 M and 10^−3 M were incubated with 200 μM substrate peptide, the reaction was initiated by addition of 10 nM α‐FXIIa, enzymatic activity was measured as described above, and IC50 values were determined by non‐linear regression analysis (GRAPHPAD PRISM, version 6.04) using the log[inhibitor] versus response – variable slope algorithm with a bottom constraint.

[1] = target: Full length activated FXIIa (α‐FXIIa) (UniProt P00748)
[2] = synthetic peptides 10^−6 M to 10^−3 M
[3] = synthetic peptides 10^−6 M to 10^−3 M, 200 μM S‐2302, 10 nM α‐FXIIa, initial rate
[4] = synthetic peptides 10^−6 M to 10^−3 M, 200 μM S‐2302, 10 nM α‐FXIIa, initial rate, SEM
[5] = CTI variant proteins 10^−8 M to 10^−5 M, 200 μM S‐2302, 10 nM α‐FXIIa, initial rate of first 30 min, A405, SEM

CC[C@H](C)[C@@H]1NC(=O)CNC(=O)[C@H](C)NC(=O)[C@H]([C@@H](C)O)NC(=O)[C@H](CCCNC(=N)N)NC(=O)[C@H](CO)NC(=O)[C@H]([C@@H](C)O)NC(=O)[C@H](C(C)C)NC(=O)[C@H](Cc2ccc(O)cc2)NC(=O)[C@H](Cc2c[nH]c3ccccc23)NC(=O)[C@H](CCCNC(=N)N)NC(=O)[C@@H](N)CSSC[C@@H](C(=O)O)NC(=O)[C@H](CCCNC(=N)N)NC(=O)[C@H](CCCNC(=N)N)NC(=O)[C@H](CCCCN)NC(=O)[C@H](CC(C)C)NC(=O)[C@H](CCC(=O)O)NC(=O)[C@@H]2CCCN2C(=O)[C@H](Cc2c[nH]c3ccccc23)NC(=O)[C@@H]2CCCN2C(=O)[C@H](CC(C)C)NC(=O)[C@H](CCCNC(=N)N)NC(=O)[C@@H]2CCCN2C(=O)CNC1=O [CTI(20–44)] (H-CRWYVTSRTAGIGPRLPWPELKRRC-OH; disulfide 1-25; N-terminus and C-terminus assumed) was tested, and the “Fold reduction in inhibitory activity as compared with rec‐CTI” value (α‐FXIIa; synthetic peptides, relative to recombinant CTI) was 2416 fold.

In the case of “GISTAGPWRRRPPELLKVTY [Scrambled, scrambled control peptide]”, the “IC50 (M)” value (α‐FXIIa; [2]) is reported as “NIA” and the “pIC50 ± SE” value (α‐FXIIa; [3]) is reported as “NIA”.

“IGPRLPWP [CTI(31–38), eight‐mer peptide spanning the loop between helices α1 and α2 (CTI residues 31–38)]” was tested, and the “IC50 (M)” value (α‐FXIIa; [2]) was “NIA” and the “pIC50 ± SE” value (α‐FXIIa; [3]) was “NIA”.

For RWYVTSRTAGIGPRLPWPELKR [CTI(21–42)], the IC50 (α‐FXIIa; [4]) was 200 µM.

In the case of RWYVTSRTAGIGPRLPWPELKRR [CTI(21–43)], the IC50 (α‐FXIIa; [4]) is reported as 457 µM.

YVTSRTAGIGPRLPWPELKRR [CTI(23–43)] gave an IC50 (α‐FXIIa; [4]) of 1150 µM.

For “glutathione‐S‐transferase [GST, reference compound]”, the “Inhibition of α‐FXIIa, result in words” value (α‐FXIIa; 200 μM substrate peptide, 10 nM α‐FXIIa) was “did not inhibit”, the “pIC50 ± SE” value (α‐FXIIa; CTI variant proteins 10^−8 M to 10^−5 M, 200 μM S‐2302, 10 nM α‐FXIIa, initial rate of first 30 min, A405) was “NIA” and the “IC50 (M)” value (α‐FXIIa; CTI variant proteins 10^−8 M to 10^−5 M, 200 μM S‐2302, 10 nM α‐FXIIa) was “NIA”.

“recombinant CTI (rec‐CTI) (natural protein)” showed an IC50 of inhibition of α‐FXIIa enzymatic activity (S‐2302 cleavage) [1] of 0.12 µM and a pIC50 of inhibition of α‐FXIIa enzymatic activity (S‐2302 cleavage) [1] of 6.94.

rec‐CTI E39A (natural protein) gave an IC50 of inhibition of α‐FXIIa enzymatic activity (S‐2302 cleavage) [1] of 0.14 µM and a pIC50 of inhibition of α‐FXIIa enzymatic activity (S‐2302 cleavage) [1] of 6.85.

Work on rec‐CTI G30W (natural protein) yielded an IC50 of inhibition of α‐FXIIa enzymatic activity (S‐2302 cleavage) [1] of 0.48 µM and a pIC50 of inhibition of α‐FXIIa enzymatic activity (S‐2302 cleavage) [1] of 6.32.

For rec‐CTI G32W (natural protein), the IC50 of inhibition of α‐FXIIa enzymatic activity (S‐2302 cleavage) [1] was 13 µM and the pIC50 of inhibition of α‐FXIIa enzymatic activity (S‐2302 cleavage) [1] was 4.89.

Molecule rec‐CTI L35A (natural protein) has an IC50 of inhibition of α‐FXIIa enzymatic activity (S‐2302 cleavage) [1] of 4.9 µM and a pIC50 of inhibition of α‐FXIIa enzymatic activity (S‐2302 cleavage) [1] of 5.31.

rec‐CTI R27A (natural protein) showed an IC50 of inhibition of α‐FXIIa enzymatic activity (S‐2302 cleavage) [1] of 0.17 µM and a pIC50 of inhibition of α‐FXIIa enzymatic activity (S‐2302 cleavage) [1] of 6.78.

In the case of rec‐CTI R27A/E39A (natural protein), the IC50 of inhibition of α‐FXIIa enzymatic activity (S‐2302 cleavage) [1] is reported as 0.26 µM and the pIC50 of inhibition of α‐FXIIa enzymatic activity (S‐2302 cleavage) [1] is reported as 6.58.

rec‐CTI R27A/R42A (natural protein) gave an IC50 of inhibition of α‐FXIIa enzymatic activity (S‐2302 cleavage) [1] of 0.16 µM and a pIC50 of inhibition of α‐FXIIa enzymatic activity (S‐2302 cleavage) [1] of 6.8.

For rec‐CTI R42A (natural protein), the IC50 of inhibition of α‐FXIIa enzymatic activity (S‐2302 cleavage) [1] was 0.19 µM and the pIC50 of inhibition of α‐FXIIa enzymatic activity (S‐2302 cleavage) [1] was 6.72.

In the case of rec‐CTI R42A/R43A (natural protein), the IC50 of inhibition of α‐FXIIa enzymatic activity (S‐2302 cleavage) [1] is reported as 11 µM and the pIC50 of inhibition of α‐FXIIa enzymatic activity (S‐2302 cleavage) [1] is reported as 4.98.

rec‐CTI W22A (natural protein) showed an IC50 of inhibition of α‐FXIIa enzymatic activity (S‐2302 cleavage) [1] of 19 µM and a pIC50 of inhibition of α‐FXIIa enzymatic activity (S‐2302 cleavage) [1] of 4.72.

Work on rec‐CTI W37A (natural protein) yielded an IC50 of inhibition of α‐FXIIa enzymatic activity (S‐2302 cleavage) [1] of 0.11 µM and a pIC50 of inhibition of α‐FXIIa enzymatic activity (S‐2302 cleavage) [1] of 6.97.

B1: L35A: rec‐CTI variant, alanine substitution of Leu35 (protein)
chain: SAGTSCVPGWAIPHNPLPSCRWYVTSRTCGIGPRAPWPELKRRCCRELADIPAYCRCTALSILMDGAIPPGPDAQLEGRLEDLPGCPREVQRGFAATLVTEAECNLATISGVAECPWILGGGTMPSK
modifications: assayed as His6-GST fusion (tag omitted); disulfides
For B1, the “pIC50 ± SE” value (α‐FXIIa; [5]) was 5.31 ± 0.05.

B2: G32W: rec‐CTI variant, replacement of Gly32 with tryptophan (protein)
chain: B1 chain with G32W, A35L
modifications: assayed as His6-GST fusion (tag omitted); disulfides
In the case of B2, the “pIC50 ± SE” value (α‐FXIIa; [5]) is reported as 4.89 ± 0.06.

B3: W22A: rec‐CTI variant, alanine substitution of Trp22 (protein)
chain: B1 chain with W22A, A35L
modifications: assayed as His6-GST fusion (tag omitted); disulfides
In the case of B3, the “pIC50 ± SE” value (α‐FXIIa; [5]) is reported as 4.72 ± 0.24.

B4: R27A/E39A: rec‐CTI double substitution R27A/E39A (protein)
chain: B1 chain with R27A, A35L, E39A
modifications: assayed as His6-GST fusion (tag omitted); disulfides
In the case of B4, the “pIC50 ± SE” value (α‐FXIIa; [5]) is reported as 6.58 ± 0.08.

B5: W37A: rec‐CTI variant, alanine substitution of Trp37 (protein)
chain: B1 chain with A35L, W37A
modifications: assayed as His6-GST fusion (tag omitted); disulfides
B5 was tested, and the “pIC50 ± SE” value (α‐FXIIa; [5]) was 6.97 ± 0.06.

B6: R42A: rec‐CTI variant, alanine substitution of Arg42 (protein)
chain: B1 chain with A35L, R42A
modifications: assayed as His6-GST fusion (tag omitted); disulfides
With B6 the “pIC50 ± SE” value (α‐FXIIa; [5]) was 6.72 ± 0.15.

B7: R42A/R43A: rec‐CTI R42A/R43A double mutant (protein)
chain: B1 chain with A35L, R42A, R43A
modifications: assayed as His6-GST fusion (tag omitted); disulfides
For B7, the “pIC50 ± SE” value (α‐FXIIa; [5]) was 4.98 ± 0.02.

B8: E39A: rec‐CTI variant, alanine substitution of Glu39 (protein)
chain: B1 chain with A35L, E39A
modifications: assayed as His6-GST fusion (tag omitted); disulfides
For B8, the “pIC50 ± SE” value (α‐FXIIa; [5]) was 6.85 ± 0.06.

B9: R27A: rec‐CTI variant, alanine substitution of Arg27 (protein)
chain: B1 chain with R27A, A35L
modifications: assayed as His6-GST fusion (tag omitted); disulfides
B9 was tested, and the “pIC50 ± SE” value (α‐FXIIa; [5]) was 6.78 ± 0.04.

B10: G30W: rec‐CTI variant, replacement of Gly30 with a tryptophan (protein)
chain: B1 chain with G30W, A35L
modifications: assayed as His6-GST fusion (tag omitted); disulfides
For B10, the “pIC50 ± SE” value (α‐FXIIa; [5]) was 6.32 ± 0.06.

B11: R27A/R42A: rec‐CTI double substitution R27A/R42A (protein)
chain: B1 chain with R27A, A35L, R42A
modifications: assayed as His6-GST fusion (tag omitted); disulfides
In the case of B11, the “pIC50 ± SE” value (α‐FXIIa; [5]) is reported as 6.80 ± 0.05.
